Measured values from patent US9273146 (Takeda / Millennium, dated 2016).

Columns and labels:
[1] = target: T1, human GCC (guanylyl cyclase C) (human, UniProt P25092 24-1073); assay: automated IHC (TechMate) on FFPE colon tumors and cell pellets, antibody at 1.0 ug/ml overnight
T1 construct: Target of the IHC on formalin-fixed, paraffin-embedded HEK293-GCC xenografts, GCC-transfected cell pellets and human colon tissues; also called hGCC; STAR

[2] = target: T1, human GCC (guanylyl cyclase C); assay: IHC on FFPE GCC-transfected and parental cell pellets

T1 sequence (P25092 24-1073 limits assumed): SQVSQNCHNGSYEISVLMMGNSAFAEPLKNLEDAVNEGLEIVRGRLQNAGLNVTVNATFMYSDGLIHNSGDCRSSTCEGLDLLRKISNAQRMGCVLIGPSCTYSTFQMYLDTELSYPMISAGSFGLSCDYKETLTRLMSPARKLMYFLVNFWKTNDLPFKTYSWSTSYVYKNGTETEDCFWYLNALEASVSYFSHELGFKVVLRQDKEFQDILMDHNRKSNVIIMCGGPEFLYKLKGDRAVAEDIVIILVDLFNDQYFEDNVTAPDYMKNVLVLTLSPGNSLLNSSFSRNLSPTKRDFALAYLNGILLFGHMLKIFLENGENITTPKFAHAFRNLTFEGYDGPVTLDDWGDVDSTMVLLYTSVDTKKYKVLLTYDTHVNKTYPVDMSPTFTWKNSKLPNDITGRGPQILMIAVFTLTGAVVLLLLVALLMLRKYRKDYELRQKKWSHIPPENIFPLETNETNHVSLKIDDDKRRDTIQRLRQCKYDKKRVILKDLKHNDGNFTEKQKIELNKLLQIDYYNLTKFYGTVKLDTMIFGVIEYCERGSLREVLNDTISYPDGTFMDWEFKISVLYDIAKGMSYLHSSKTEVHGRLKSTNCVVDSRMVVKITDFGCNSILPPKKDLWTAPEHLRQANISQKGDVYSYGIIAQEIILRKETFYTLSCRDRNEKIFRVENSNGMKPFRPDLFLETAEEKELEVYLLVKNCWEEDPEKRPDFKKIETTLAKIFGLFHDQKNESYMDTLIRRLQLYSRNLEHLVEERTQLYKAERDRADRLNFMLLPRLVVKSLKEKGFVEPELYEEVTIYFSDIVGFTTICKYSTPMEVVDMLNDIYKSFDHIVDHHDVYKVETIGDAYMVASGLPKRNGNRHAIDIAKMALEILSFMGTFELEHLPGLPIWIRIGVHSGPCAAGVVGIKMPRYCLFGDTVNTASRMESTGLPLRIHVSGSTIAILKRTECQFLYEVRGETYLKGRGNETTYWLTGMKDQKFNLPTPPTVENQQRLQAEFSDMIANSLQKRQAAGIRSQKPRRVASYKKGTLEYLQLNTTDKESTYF

| binding result [1] | binding result [2] | Binder |
| --- | --- | --- |
| binds |  | MIL-44-148-2 (antibody, V domains shown, Rabbit monoclonal IgG from a rabbit-rabbit hybridoma) VH: QSVKESGGGLFKPTDTLTLTCTVSGFSLSSHRMNWVRQTPGKGLEWIAIITHNSITYYASWAKSRSTITRNTSENTVTLKMTSLTAADTATYFCAREDSMGYYFDLWGPGTLVTISS VL: AYDMTQTPASVEVAVGGTVTIKCQASQSISNWLAWYQQKPGQSPKPLIYRASTLASGVSSRFRGSGSGTQFTLTISGVECADAATYYCQQTYTNNHLDNGFGGGTEVVVKG |
|  | binds | MIL-44-67-4 (antibody, V domains shown, Rabbit monoclonal IgG from a rabbit-rabbit hybridoma; also called MIL-44-67-4 antibody; subclone #67-4) VH: QSVEESGGRLVTPGTPLTLTCTASGSDISNYAISWVRQAPGKGLEFIGYISYGKSIYYASWAKGRFAISKTSSTTVDLEITSPTTEDTATYFCAREDSATYSPNLWGPGTLVTVSS VL: AYDMTQTPASVEVAVGGTVTIKCQASQSINTYLAWYQQKPGQRPKLLIYRASTLASGVSSRFKGSGSGTEFTLTISGVECADAATYYCQQGYSYNNLDRAFGGGTEVVVTG |
